Data published in the supplement of paper PMC7125110.
± gives the standard error. For some assays here: Fewer inactive variants are shown than the library holds.

B1: glmS ribozyme (parent)
chain: AUAAAAGCGCCAGAACUACAGAAAUGUAGUUGACGAGGAGGAGGUUUAUCGAAUUUUCGGCGGAUGCCUCCAAA

How the values were obtained:
Settings in all cases: with glucosamine-6-phosphate
glucosamine-6-phosphate [1] = variants of: B1; experiment: kcat; higher = faster cleavage; RNA array
How it was run: (§1)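 Tiles of sequenced MiSeq chips were imaged over ~14 h at 37 °C. On them, barcoded ribozyme variants had been transcribed in situ by E. coli RNA polymerase and were tracked via a hybridised Cy3 probe while glucosamine-6-phosphate (40 μM to 10 mM) in HEPES/KCl/Mg(OAc)2 buffer flowed in. Per-tile medians, normalised to baseline and to non-cleaving reference variants, were fit to one- or two-exponential decays for kobs, and weighted Michaelis–Menten fits gave kcat and KM.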

glucosamine-6-phosphate [2] = variants of: B1; experiment: self-cleavage kobs at 40 uM GlcN6P; higher = faster cleavage; RNA array
How it was run: as §1

glucosamine-6-phosphate [3] = variants of: B1; experiment: self-cleavage kobs at 10000 uM GlcN6P; higher = faster cleavage; RNA array
How it was run: as §1

glucosamine-6-phosphate [4] = variants of: B1; experiment: KM; higher = weaker cofactor use; RNA array
How it was run: as §1

glucosamine-6-phosphate [5] = variants of: B1; experiment: self-cleavage kobs at 160 uM GlcN6P; higher = faster cleavage; RNA array
How it was run: as §1

glucosamine-6-phosphate [6] = variants of: B1; experiment: self-cleavage kobs at 640 uM GlcN6P; higher = faster cleavage; RNA array
How it was run: as §1

glucosamine-6-phosphate [7] = variants of: B1; experiment: self-cleavage kobs at 2500 uM GlcN6P; higher = faster cleavage; RNA array
How it was run: as §1

Row | Variant | kcat (glucosamine-6-phosphate [1]) [s⁻¹] | self-cleavage kobs at 40 uM GlcN6P (glucosamine-6-phosphate [2]) [s⁻¹] | self-cleavage kobs at 10000 uM GlcN6P (glucosamine-6-phosphate [3]) [s⁻¹] | KM (glucosamine-6-phosphate [4]) [µM] | self-cleavage kobs at 160 uM GlcN6P (glucosamine-6-phosphate [5]) [s⁻¹] | self-cleavage kobs at 640 uM GlcN6P (glucosamine-6-phosphate [6]) [s⁻¹] | self-cleavage kobs at 2500 uM GlcN6P (glucosamine-6-phosphate [7]) [s⁻¹]
1 | AUAAAAGCGCCAGAACUACAGAAAUGUAGUUGGCGAGGAGGAGGUUUAUCGAAUUUUCGGCGGAUGACUCCAAA | < 1e-05 | < 1e-05 | < 1e-05 |  |  |  | 
2 | AUAAAAGCGCCAGAACUACAGAAAUGUAGUUGACGAGGUGAAGGUUUAUCGAAUUUUCGGCGGAUGCCUCCAAA | 0.00029 ± 1.6e-05 |  | 0.000257 ± 3e-05 | 651 ± 93 | 5.88e-05 ± 1.3e-05 | 0.00014 ± 1.5e-05 | 0.00025 ± 2.7e-05
3 | AUAAAAGCGCCAGAACUACAGAAAUGUAGUUGACGAGGACGAGGUUUAUCGAAUUUUCGGCGGAUGCCUACAAA | 0.000174 ± 1.6e-05 |  | 0.000154 ± 2.9e-05 | 516 ± 140 |  | 0.000105 ± 1.9e-05 | 0.00016 ± 3.8e-05
4 | AUAAAAGCGCCAGAACUACAGAAAUGUAGUUGACGAGGAGGAGGUUUAUUGAAUUUUCGGCGGAGGCCUCCAAA | < 1e-05 | < 1e-05 |  |  |  |  | 
5 | AUAAAAGCGCCAGAAUUACAGAAAUGUAUUUGACGAGGAGGAGGUUUAUCGAAUUUUCGGCGGAUGCCUCCAAA | 0.00871 ± 0.0037 | 0.000315 ± 2.9e-05 | 0.0111 ± 0.0014 |  | 0.000639 ± 8.5e-05 | 0.00245 ± 0.00028 | 0.00415 ± 0.00061
6 | AUAAAUGCGCCAGAACUACAGAAAUGUAGUUGACGAGGAGGAGGUUUAUCGAAUUUUCGGCGGAUACCUCCAAA | 0.000205 ± 1.7e-05 |  | 0.000155 ± 1.9e-05 | 3170 ± 600 |  | 3.28e-05 ± 1.3e-05 | 9.12e-05 ± 1.4e-05
7 | AUAAAAGCGCCAGAACUACAGAAAUGUAUUUGACGAGGAGGAGGUUUAUCGAAAUUUCGGCGGAUGCCUCCAAA | 0.00792 ± 0.0027 | 0.000181 ± 1.9e-05 | 0.0068 ± 0.00083 | 2360 ± 1100 | 0.000284 ± 7.7e-05 | 0.00184 ± 0.0003 | 0.00361 ± 0.0006
8 | AUAAAAGCGCCAGAACUACAGAAAUGUAGUUGACGAGGAGGAGGUUGAUCGAAGUUUCGGCGGAUGCCUCCAAA | 0.0073 ± 0.0022 | 0.00053 ± 8.3e-05 | 0.00685 ± 0.0015 | 724 ± 320 | 0.000915 ± 0.00023 | 0.00367 ± 0.00086 | 0.0063 ± 0.0018
